{
  "source": "the nanobody polyreactivity screen of Harvey et al. (2022)",
  "data": [
    {"assay": "yeast display, Sf9 membrane polyspecificity reagent, FACS + sequencing; frameworks hold sequencing errors", "how_it_was_run": "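Synthetic nanobody libraries on Saccharomyces cerevisiae BJ5465 were galactose-induced for 36–48 hours, stained 1 hour at 4 °C with 10% biotinylated, detergent-solubilized Sf9 membrane reagent and enriched on streptavidin microbeads. FACS then separated cells into low and high (top ~1%) gates by anti-HA (expression) and streptavidin (reagent binding) fluorescence. Genes were colony-PCR amplified, MiSeq 2 × 250 sequenced and CDR-length filtered. A clone's polyreactivity label is that of its gate of origin.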", "values": [
      {"sequence": "QVQLVESGGGLVQAGGSLRLSCAASGLTFIVYAMAWYRQAPGKERELVADITWSGGSTYYADSVKGRFTISRDNAKNTVYLQMNSLKPEDTAVYYCNRQSAKIMDYWGQGTQVTVSS", "polyreactivity (PSR sort gate)": "low polyreactivity"},
      {"sequence": "QVQLVESGGGLVQAGGSLRLSCAASGLTFIYYAMGWYRQAPGKEREMVAAISTSGASTYYADSVKGRFTISRDNAKNTVYLQMNSLKPEVSAVYYCNGEYFGEYRDYGYWGQGTLVTVSS", "polyreactivity (PSR sort gate)": "low polyreactivity"},
      {"sequence": "QVQLVESGGGLVQAGGSLRLSCAASGLTFKTYAMGWYRQAPGKERELVAAITRNGGSTYYADSVKGRFTISRDNAKNTVYLQMNSLKPEDTAVYYCAARRAYDNRHDYWGQGTQVTVSS", "polyreactivity (PSR sort gate)": "high polyreactivity"},
      {"sequence": "QVQLVESGGGLVQAGGSLRLSCAASGLTFKWYAMGWYRQAPGKERELVAASSRDGSTYYADSVKGRFTLSRDNAKNTVYLQMTSLKPEDTAVDYCAADIWPSSLLADEYDYWGQGTQVTVSS", "polyreactivity (PSR sort gate)": "high polyreactivity"},
      {"sequence": "QVQLVESGGGLVQAGGSLRLSCAASGLTFKYYAMGWYRQAPGKESELVAAITSTGGRTYYADSVKGRFTISRDNAKNTVYLQMNSLKPEDTAVYYCAAYYVGSSKYDSWGQGTQVTVSS", "polyreactivity (PSR sort gate)": "low polyreactivity"},
      {"sequence": "QVQLVESGGGLVQAGGSLRLSCAASGLTFNAYAMGWYRQAPGKERELVADITTSDGSTFYADSVKGRFTISRDNAKNTVYLQMNSLKPEDTAVYYCNADAYGWYSGPWFKWLLWYDYWGQGTQVTVSS", "polyreactivity (PSR sort gate)": "low polyreactivity"},
      {"sequence": "QVQLVESGGGLVQAGGSLRLSCAASGLTFNRYAMGWYRQARGKERELVAAISINGGSTYYADSVKGRFTISRDNAKNTVYLQMNSLKPEDTAVYYCAARRVQRPSTYGYWGQGTQVTVSS", "polyreactivity (PSR sort gate)": "high polyreactivity"},
      {"sequence": "QVQLVESGGGLVQAGGSLRLSCAASGLTFNYYDRGWYRQAPGKERELVAAISRSRTNTSYADSVKGRFTISRDNAKNTVYLQMNSLKPEDTAVYYCNAAGVYLAAGPYTANFNYNYWGQGTQVTVSS", "polyreactivity (PSR sort gate)": "low polyreactivity"},
      {"sequence": "QVQLVESGGGLVQAGGSLRLSCAASGLTFPLYVMGWYRQAPGKARELVATITGGGSTTYADSVKGRFTISRDNAKNTVYFQMNSLKPEDTAVYYCAADFVFVATPLRYDYWGPGTQVTVSS", "polyreactivity (PSR sort gate)": "low polyreactivity"},
      {"sequence": "QVQLVESGGGLVQAGGSLRLSCAASGLTFPRYTMGWYRQPPGKERELVAAISSSTGTTNYADSVKGRFTISRDNAKNTVYLQMNSLKPEDTAVYYCAKRVSSWLGFHLDYWGQGTQVTVSS", "polyreactivity (PSR sort gate)": "low polyreactivity"},
      {"sequence": "QVQLVESGGGLVQAGGSLRLSCAASGLTFPSYAMGWYRQAPGKERELVAAISRRSGSTYYADSVKGRFTISRDNAKNTVYLQMNSLKPEDTAVYYCTTRRGERGYWGQGTQVTVSS", "polyreactivity (PSR sort gate)": "high polyreactivity"},
      {"sequence": "QVQLVESGGGLVQAGGSLRLSCAASGLTFPTYAMGWYRQAPGKERELVAAISRIGGRTYYADSVKGRFTISRDNAKNTFYLQMNSLKPEDTAVYYCAADVIKGCVEYDYWGQGTKVTVSS", "polyreactivity (PSR sort gate)": "high polyreactivity"},
      {"sequence": "QVQLVESGGGLVQAGGSLRLSCAASGLTFPVYTMGWYRQAPGKEREFVAAITYNGGRTYYADSVKGRFTISRDNAKNTVYLQMNSLKPEDTAVYYCAAEYGTYFVRYYAGASYRYGYWGQGTQVTVSS", "polyreactivity (PSR sort gate)": "low polyreactivity"},
      {"sequence": "QVQLVESGGGLVQAGGSLRLSCAASGLTFPYNVMGWYRQAPGKERELVASITSVGTTDYADSVKGRFTISRDNAKNTVSVLMNSLKPEVTAVYYCAADVTLFYWWYGKEDYDYWGQGTQVTVSS", "polyreactivity (PSR sort gate)": "low polyreactivity"},
      {"sequence": "QVQLVESGGGLVQAGGSLRLSCAASGLTFPYYAMGWYRQAPGKERELVAVITSGGRTYYADSVKGRFTISRDNAKNTVYLQMNSLKPEDTAVYYCAVGWRTIYGSDGDYWGQGTQVTVST", "polyreactivity (PSR sort gate)": "high polyreactivity"},
      {"sequence": "QVQLVESGGGLVQAGGSLRLSCAASGLTFPYYVMGWSRQAPGKERELVAAITTDDRTYYADSVKGRFTISRDNAKNTVYLQMNSLKPEDTAVYYCNVVIYYFNSRTVYYDYDYWGQGTQVTVSS", "polyreactivity (PSR sort gate)": "high polyreactivity"}
    ]}
  ]
}
